“Also recorded” adds a separate entry of the source. Where two headings read alike, the source gives them in different places.
Experiments:
[1] = system: EPEC; type: cell-based, enteropathogenic E. coli (EPEC); conditions: 20 μM compound, 3T3 cells infected with EPEC for 6 hrs, FITC-phalloidin/DAPI
From the text: Cell and animal models for pathogenic E. coli infection: Enteropathogenic E. coli (EPEC), which is closely related to enterohemorrhagic E. coli O157:H7 (EHEC), and the closely related mouse pathogen Citrobacter rodentium all cause attaching and effacing (A/E) lesions, characterized by flattening of intestinal microvilli, adherence of the bacteria to epithelial cells, and reorganization of the host actin cytoskeleton, which result in the formation of an actin-filled membrane protrusion or “pedestal” beneath each bacterium (Goosney et al., 2000; Knutton et al., 1989). Pedestal formation is readily detected on cultured fibroblasts (see FIG. 30) exposed to EPEC, and then stained with antibodies that recognized outer membrane proteins in the bacterium (green in FIG. 30) or DAPI, which recognizes bacterial and cellular DNA (blue in FIG. 30), together with phalloidin to recognize actin (red in […]). Pedestals are seen as intense actin staining directly opposed to the bacterium.
(§1) To determine whether formation of actin pedestals by EPEC could be used to screen for drugs which inhibit virulence, we tested each of the 82 compounds. 3T3 cells were plated in 96 well optical dishes. In this “proof of principle” experiment, each of the 82 compounds was added to a well at 20 μM, and cells were infected with EPEC for 6 hrs. The optical density (OD600) of the supernatant was assessed to estimate effects on bacterial growth, and the cells were fixed and stained with DAPI to recognize bacteria (and cell nuclei), and FITC-phalloidin to recognize filamentous actin. Inhibition of actin pedestals is readily identifiable as the loss of intense actin staining (Kalman et al., 1999; Swimm et al., 2004a). The plate was then scanned visually on an inverted Zeiss 200M fluorescence microscope with a 20× objective. All the wells on the dish were examined with 5 minutes (a high throughput format). At low power, actin pedestals are seen as intense fluorescence apposed to groups of bacteria (see FIG. 31B, arrow).

[2] = target: Dam (Escherichia coli, UniProt P0AEE8); conditions: compound concentration 200 μM; preliminary results, microplate assay
[3] = system: EPEC; experiment: bacterial growth by OD600 of supernatant / growth curves; type: cell-based, enteropathogenic E. coli (EPEC); conditions: 20 μM compound, listed as G6
Description: as §1

[4] = system: 3T3 cells; conditions: 20 μM compound
Description: as §1

[5] = target: T1, EcoDam DNA adenine methyltransferase (Escherichia coli, UniProt P0AEE8 SEQ:1-274); conditions: 2-aminopurine replacing orphan Thy; AdoHcy, Thy flipping
[6] = target: EcoDam R124A R124A (Escherichia coli) (UniProt P0AEE8); experiment: SPR
[7] = target: EcoDam K9A K9A (Escherichia coli) (UniProt P0AEE8); experiment: SPR; conditions: data not shown
[8] = target: T2, T4Dam DNA adenine methyltransferase (Enterobacteria phage T4, UniProt P04392 SEQ:1-259); experiment: structure; AdoHcy; nonspecific mode, not at GATC; 3.1 A
[9] = target: T2, T4Dam DNA adenine methyltransferase; experiment: structure; AdoHcy; PDB 1YF3; nonspecific and 1/4-site; conditions: one-base 5' overhangs
[10] = target: T1, EcoDam DNA adenine methyltransferase; experiment: structure; AdoHcy cognate complex 1.89 A; also sinefungin non-canonical joint complex 1.99 A; conditions: tags: His tag
Description: His Tag-EcoDam is expressed in HMS174(DE3) cells and purified using Ni²⁺-affinity, UnoS, and S75 Sepharose sizing columns. A 0.5-liter induced culture yields approximately 7 mg purified His Tag-EcoDam. In the last purification step and during concentration, cofactor analog AdoHcy or sinefungin is added is added to the protein at approximately 2:1 molar ratio. Concentrated binary complexes are mixed with oligonucleotide duplex (synthesized by New England Biolabs, Inc) at a protein to DNA ratio of about 2:1 and allowed to stand on ice for at least two hours before crystallization. Final protein concentration for crystallization is about 15 mg/mL. In hanging drop crystallization trials with AdoHcy, the ternary complex crystals appeared under low salt conditions of 100 mM KCl, 10 mM MgSO₄, 5-15% PEG400, and 100 mM buffer (MES or HEPES) pH 6.6-7.4 (the cognate crystal form in Table 4).
Structural determination of the cognate ternary complex proceeded by molecular replacement with the program REPLACE (Tong and Rossmann, 1997) using protein coordinates of a DpnM monomer structure (PDB 2DPM) (Tran et al., 1998). […] Structure of the non-cognate ternary complex was determined using a protein monomer from the refined cognate complex structure as a search model.

[11] = target: T2, T4Dam DNA adenine methyltransferase; experiment: structure; sinefungin; PDB 1YFL; full site with flipped Ade

`O=C1Oc2ccccc2C(=O)/C1=C/Nc1nc(-c2ccc(O)c(O)c2)cs1` [Compound 78] was tested, and the actin pedestal formation [1] was “inhibit actin pedestal formation”, the actin pedestal formation ([1]; listed as G6) was “appeared to inhibit actin pedestals; also recorded: No actin pedestals are observed” and the actin pedestal formation ([1]; listed as NCI 659390) was “inhibit actin pedestal formation”. The Factor of inhibition [2] was 5, the “effect on bacterial growth (OD600)” value [3] was “did not affect bacterial growth; also recorded: no effect on bacterial growth” and the “gross cytopathological effects on 3T3 cells” value [4] was “no gross cytopathological effects”.

For GATC with 2AP at orphan Thy, the binding signal (fold fluorescence increase) [5] was 6.

SPR GATC oligonucleotide duplex was tested, and the binding signal (fold reduction vs wild type) [6] was 10 and the binding signal (% of wild type binding) [7] was 70.

B1: 12-mer duplex I (dsDNA)
DNA 1: ACAGGATCCTGT
DNA 2: ACAGGATCCTGT
B1: binds [8].

B2: 13-mer duplex II (dsDNA)
DNA 1: TGTCAGATCATGG
DNA 2: ACCATGATCTGAC
B2: binds [9].

B3: EcoDam 12-mer (dsDNA)
DNA 1: TCTAGATCTAGA
DNA 2: TCTAGATCTAGA
B3: binds [10].

B4: 16-mer duplex (dsDNA)
DNA 1: TCACAGGATCCTGTGA
DNA 2: TCACAGGATCCTGTGA
B4: binds [11].

Reference: patent US20100035945A1, “SMALL MOLECULE INHIBITORS OF BACTERIAL DAM DNA METHYLTRANSFERASES” (priority 2004, published 2010)
